Assay results from patent publication US20240342283A1 (SHANDONG BOAN BIOTECHNOLOGY, published 2024).

B1: R12 ROR1 CAR (other)
CAR: QEQKVESGGRLVTPGGSLTLSCKASGFDFSAYYMSWVRQAPGKGLEWIATIYPSSGKTYYATWVNGRFTISSDNAQNTVDLQMNSLTAADRATYFCARDSYADDGALFNIWGPGTLVTISSGGGGSGGGGSGGGGSELVLTQSPSVSAALGSPAKITCTLSSAHKTDTIDWYQQLQGEAPRYLMQVQSDGSYTKRPGVPDRFSGSSSGADRYLIIPSVQADDEADYYCGADYIGGYVFGGGTQLTVTGTTTPAPRPPTPAPTIASQPLSLRPEACRPAAGGAVHTRGLDFACDIYIWAPLAGTCGVLLLSLVITLYCKRGRKKLLYIFKQPFMRPVQTTQEEDGCSCRFPEEEEGGCELRVKFSRSADAPAYKQGQNQLYNELNLGRREEYDVLDKRRGRDPEMGGKPRRKNPQEGLYNELQKDKMAEAYSEIGMKGERRRGKGHDGLYQGLSTATKDTYDALHMQALPPR
notes: Benchmark chimeric antigen receptor on electroporated primary T cells; also called R12 CAR; Benchmark Control R12
B2: RC005c (other)
CAR: EVQLVQSGAEVKKPGATVKISCKVSGYTFTDYEMHWVKQAPGKGLEWIGAIDPETGGTAYNQKFKGRATITADKSSSTAYMELSSLRSEDSAVYYCTPYYGYAMDYWGQGTLVTVSSGGGGSGGGGSGGGGSDIQLTQSPSFLSASVGDRVTITCKASQNVGTNVAWYQQKPGKAPKLLIYWASTRHTGVPSRFSGSGSGTEFTLTISSLQPEDFATYFCQQYSSYPLTFGQGTKLEIKTTTPAPRPPTPAPTIASQPLSLRPEACRPAAGGAVHTRGLDFACDIYIWAPLAGTCGVLLLSLVITLYCKRGRKKLLYIFKQPFMRPVQTTQEEDGCSCRFPEEEEGGCELRVKFSRSADAPAYKQGQNQLYNELNLGRREEYDVLDKRRGRDPEMGGKPRRKNPQEGLYNELQKDKMAEAYSEIGMKGERRRGKGHDGLYQGLSTATKDTYDALHMQALPPR
notes: Chimeric antigen receptor on electroporated Jurkat cells or primary T cells; also called RC005c (hu709 VH4VL2); hu709 VH4VL2 CAR

Experiments:
[1] = molecular target: T1, Receptor tyrosine kinase-like orphan receptor 1 (ROR1) on ROR1-positive cells (human, UniProt Q01973 30-937); test: cell-based or functional assay
[2] = molecular target: T1, Receptor tyrosine kinase-like orphan …; test: cell-based or functional assay; remark: listed apart in the source
[3] = molecular target: T2, Biotinylated Human ROR1 Protein, His, Avitag (Acro biosystem) (human, UniProt Q01973 30-403, biotinylated (Avitag)); test: flow cytometry of CAR-electroporated primary T cells stained with Biotinylated Human ROR1 Protein, His, Avitag
T2 construct: Bought reagent; not shown: His tag and Avitag
Description: To screen for CAR activity, the above-obtained T cells were electroporated with PiggyBac plasmids (shown in FIG. 3) with the CAR cassette as well as PiggyBac Transposon mRNA. CAR expression in primary T cells was confirmed by flow cytometry using Biotinylated Human ROR1 Protein, His, Avitag (Acro biosystem) (FIG. 18A).

T1 sequence (Q01973 30-937): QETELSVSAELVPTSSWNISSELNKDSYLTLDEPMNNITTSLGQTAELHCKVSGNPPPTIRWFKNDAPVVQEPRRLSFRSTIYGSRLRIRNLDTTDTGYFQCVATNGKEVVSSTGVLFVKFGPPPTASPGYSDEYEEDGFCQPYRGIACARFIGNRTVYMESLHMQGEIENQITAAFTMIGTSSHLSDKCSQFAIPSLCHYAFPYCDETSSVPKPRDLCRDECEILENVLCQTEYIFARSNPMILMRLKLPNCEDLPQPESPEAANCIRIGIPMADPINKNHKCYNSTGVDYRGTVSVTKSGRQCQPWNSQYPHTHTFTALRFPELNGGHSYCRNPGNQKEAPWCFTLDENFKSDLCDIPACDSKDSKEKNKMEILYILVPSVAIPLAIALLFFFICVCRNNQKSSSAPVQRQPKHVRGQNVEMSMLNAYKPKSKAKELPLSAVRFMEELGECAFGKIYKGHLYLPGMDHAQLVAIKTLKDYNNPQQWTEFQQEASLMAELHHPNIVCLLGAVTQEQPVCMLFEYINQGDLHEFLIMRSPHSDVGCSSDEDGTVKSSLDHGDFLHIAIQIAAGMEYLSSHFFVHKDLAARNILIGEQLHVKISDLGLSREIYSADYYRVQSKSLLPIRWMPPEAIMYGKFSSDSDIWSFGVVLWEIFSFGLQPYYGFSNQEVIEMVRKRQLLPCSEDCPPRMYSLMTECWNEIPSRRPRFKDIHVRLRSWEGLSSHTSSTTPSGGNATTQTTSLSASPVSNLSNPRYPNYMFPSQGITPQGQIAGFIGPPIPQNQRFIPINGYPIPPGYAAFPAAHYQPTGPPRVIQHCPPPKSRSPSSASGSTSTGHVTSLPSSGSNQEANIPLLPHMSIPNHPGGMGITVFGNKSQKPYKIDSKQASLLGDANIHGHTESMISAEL
T2 sequence (Q01973 30-403 limits assumed): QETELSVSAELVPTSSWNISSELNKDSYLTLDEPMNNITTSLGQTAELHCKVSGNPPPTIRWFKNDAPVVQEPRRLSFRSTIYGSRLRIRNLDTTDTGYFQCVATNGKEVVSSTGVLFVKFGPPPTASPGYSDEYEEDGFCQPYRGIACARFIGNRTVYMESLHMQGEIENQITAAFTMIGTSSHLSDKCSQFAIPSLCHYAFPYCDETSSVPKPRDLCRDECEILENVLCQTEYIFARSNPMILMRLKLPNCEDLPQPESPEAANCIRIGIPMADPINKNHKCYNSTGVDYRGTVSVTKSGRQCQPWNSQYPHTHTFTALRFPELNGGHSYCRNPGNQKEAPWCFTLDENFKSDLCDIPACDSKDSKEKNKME

Row | Binder | Specific lysis (%) of MDA-MB-231, Effector to Target ratio 1:1 [1] [%] | Specific lysis (%) of MDA-MB-231, Effector to Target ratio 3:1 [1] [%] | IFN-gamma cytokine release (pg/mL), co-culture with MDA-MB-231, Effector to Target ratio 1:1 [2] [pg/mL] | IFN-gamma cytokine release (pg/mL), co-culture with MDA-MB-231, Effector to Target ratio 3:1 [2] [pg/mL] | CAR Positive rate [3] [%]
1 | B1 | 12.6 | 28.9 | 20500 | 40600 | 30.7
2 | B2 | 10.6 | 32.6 | 14600 | 36800 | 28
